Values quoted from earlier work in patent publication US20110218118A1, “PEPTIDE MODULATORS OF CELLULAR PHENOTYPE AND BI-NUCLEIC ACID FRAGMENT LIBRARY” (PHYLOGICA LIMITED, priority 2004, published 2011).

Molecular target: T1, human cyclin E (Homo sapiens, UniProt P24864)
T1 construct: expressed in transfected cells; host or cells: Saccharomyces cerevisiae strain AZ-1 (huCDK2::his2), mated with PRT 51
Conditions: yeast over-expressing human cyclin E and co-expressing human Cdk2

T1 sequence (P24864 16-410): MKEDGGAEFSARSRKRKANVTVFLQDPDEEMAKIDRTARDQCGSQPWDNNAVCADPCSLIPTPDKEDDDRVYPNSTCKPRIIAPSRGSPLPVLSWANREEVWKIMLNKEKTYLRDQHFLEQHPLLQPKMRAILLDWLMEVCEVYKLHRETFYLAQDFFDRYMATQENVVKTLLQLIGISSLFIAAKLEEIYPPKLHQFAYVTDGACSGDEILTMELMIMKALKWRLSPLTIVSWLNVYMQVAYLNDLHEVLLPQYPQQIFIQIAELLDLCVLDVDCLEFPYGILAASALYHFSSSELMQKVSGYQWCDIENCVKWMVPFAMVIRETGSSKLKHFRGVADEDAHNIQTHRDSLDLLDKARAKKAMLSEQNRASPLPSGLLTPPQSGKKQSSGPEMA

p21^CIP1: positive control protein, cDNA (SEQ ID NO: 60) cloned as in-frame fusion into the pMF4-5 plasmid
rescue of the cyclin E lethal phenotype in yeast: rescue the lethal phenotype in yeast
